Results from the Human Domainome abundance scans (Beltran et al. 2025).
± gives the uncertainty stated by the source.

B1: POU domain, class 2, transcription factor 3, residues 186 to 260; numbered along this chain, Q9UKI9 (parent)
chain: SDLEELEKFAKTFKQRRIKLGFTQGDVGLAMGKLYGNDFSQTTISRFEALNLSFKNMCKLKPLLEKWLNDAESSP

Variants of: B1
Experiment: abundance fitness (aPCA) (normalised: wild type 0, dead -1); higher = more abundant; growth selection in yeast, the domain comes from the species named
Details: Homo sapiens

SDLEELEKFAKTFKQRRIKLGFTQGDVGLARGKLYGNDFSQTTISRFEALNLSFKNMCKLKPLLEKWLNDAESSP and SDLEELEKFAKTFKQRRIKLGFTQGDVGLACGKLYGNDFSQTTISRFEALNLSFKNMCKLKPLLEKWLNDAESSP are within error of each other in abundance fitness: -0.746 ± 0.37 for the first, -0.583 ± 0.31 for the second.

SDLEELEKFAKTFKQRRIKLGFTQGDVGLAMGKLSGNDFSQTTISRFEALNLSFKNMCKLKPLLEKWLNDAESSP and SDLEELEKFAKTFKQRRIKLGFTQGDVGLAMGKLFGNDFSQTTISRFEALNLSFKNMCKLKPLLEKWLNDAESSP are within error of each other in abundance fitness: 0.01 ± 0.15 for the first, -0.182 ± 0.23 for the second.

SDLEELEKFAKTFKQRRIKLGFTQGDVGLAMGKLDGNDFSQTTISRFEALNLSFKNMCKLKPLLEKWLNDAESSP and SDLEELEKFAKTFKQRRIKLGFTQGDVGLAMGKLYGNDFSTTTISRFEALNLSFKNMCKLKPLLEKWLNDAESSP are within error of each other in abundance fitness: -0.016 ± 0.15 for the first, -0.04 ± 0.033 for the second.

First: SDLEELEKFAKTFKQRRIKLGFTQGDVGLAMGKLYGNDFSMTTISRFEALNLSFKNMCKLKPLLEKWLNDAESSP
Second: SDLEELEKFAKTFKQRRIKLGFTQGDVGLAMGKLYGNDFSKTTISRFEALNLSFKNMCKLKPLLEKWLNDAESSP
The abundance fitness of the first is lower: -0.055 ± 0.031 for the first, 0.051 ± 0.037 for the second.

First: SDLEELEKFAKTFKQRRIKLGFTQGDVGLAMGKLYGNDFSWTTISRFEALNLSFKNMCKLKPLLEKWLNDAESSP
Second: SDLEELEKFAKTFKQRRIKLGFTQGDVGLAMGKLYGNDFSETTISRFEALNLSFKNMCKLKPLLEKWLNDAESSP
The abundance fitness of the first is lower: -0.095 ± 0.027 for the first, 0.026 ± 0.027 for the second.

SDLEELEKFAKTFKQRRIKLGFTQGDVGLAMGKLYGNDFSHTTISRFEALNLSFKNMCKLKPLLEKWLNDAESSP and SDLEELEKFAKTFKQRRIKLGFTQGDVGLAMGKLYGNDFSITTISRFEALNLSFKNMCKLKPLLEKWLNDAESSP are within error of each other in abundance fitness: -0.001 ± 0.089 for the first, -0.072 ± 0.065 for the second.

SDLEELEKFAKTFKQRRIKLGFTQGDVGLAMGKLYGNDFSSTTISRFEALNLSFKNMCKLKPLLEKWLNDAESSP and SDLEELEKFAKTFKQRRIKLGFTQGDVGLAMGKLYGNDFSCTTISRFEALNLSFKNMCKLKPLLEKWLNDAESSP are within error of each other in abundance fitness: -0.002 ± 0.031 for the first, -0.062 ± 0.053 for the second.

SDLEELEKFAKTFKQRRIKLGFTQGDVGLAMGKLYGNDFSFTTISRFEALNLSFKNMCKLKPLLEKWLNDAESSP and SDLEELEKFAKTFKQRRIKLGFTQGDVGLAMGKLYGNDFSVTTISRFEALNLSFKNMCKLKPLLEKWLNDAESSP are within error of each other in abundance fitness: -0.037 ± 0.06 for the first, -0.081 ± 0.026 for the second.

SDLEELEKFAKTFKQRRIKLGFTQGDVGLAMGKLYGNDFSDTTISRFEALNLSFKNMCKLKPLLEKWLNDAESSP and SDLEELEKFAKTFKQRRIKLGFTQGDVGLAMGKLYGNDFSPTTISRFEALNLSFKNMCKLKPLLEKWLNDAESSP are within error of each other in abundance fitness: -0.066 ± 0.063 for the first, -0.03 ± 0.035 for the second.

SDLEELEKFAKTFKQRRIKLGFTQGDVGLAMGKLYGNDFSRTTISRFEALNLSFKNMCKLKPLLEKWLNDAESSP and SDLEELEKFAKTFKQRRIKLGFTQGDVGLAMGKLYGNDFSGTTISRFEALNLSFKNMCKLKPLLEKWLNDAESSP are within error of each other in abundance fitness: -0.001 ± 0.022 for the first, 0.009 ± 0.023 for the second.

SDLEELEKFAKTFKQRRIKLGFTQGDVGLAMGKLYGNDFSATTISRFEALNLSFKNMCKLKPLLEKWLNDAESSP and SDLEELEKFAKTFKQRRIKLGFTQGDVGLAMGKLYGNDFSYTTISRFEALNLSFKNMCKLKPLLEKWLNDAESSP are within error of each other in abundance fitness: 0.025 ± 0.027 for the first, -0.07 ± 0.09 for the second.

SDLEELEKFAKTFKQRRIKLGFTQGDVGLAMGKLYGNDFSLTTISRFEALNLSFKNMCKLKPLLEKWLNDAESSP and SDLEELEKFAKTFKQRRIKLGFTQGDVGLAMGKLYGNNFSQTTISRFEALNLSFKNMCKLKPLLEKWLNDAESSP are within error of each other in abundance fitness: -0.117 ± 0.026 for the first, 0.037 ± 0.23 for the second.

SDLEELEKFAKTFKQRRIKLGFTQGDVGLAMGKLYGNDFSQITISRFEALNLSFKNMCKLKPLLEKWLNDAESSP and SDLEELEKFAKTFKQRRIKLGFTQGDVGLAMGKLYSNDFSQTTISRFEALNLSFKNMCKLKPLLEKWLNDAESSP are within error of each other in abundance fitness: 0.135 ± 0.25 for the first, 0.1 ± 0.1 for the second.

SDLEELEKFAKTFKQRRIKLGFTQGDVGLAMGKLYCNDFSQTTISRFEALNLSFKNMCKLKPLLEKWLNDAESSP and SDLEELEKFAKTFKQRRIKLGFTQGDVGLAMGKLYGIDFSQTTISRFEALNLSFKNMCKLKPLLEKWLNDAESSP are within error of each other in abundance fitness: -0.18 ± 0.41 for the first, -0.039 ± 0.057 for the second.

First: SDLEELEKFAKTFKQRRIKLGFTQGDVGLAMGKLYGVDFSQTTISRFEALNLSFKNMCKLKPLLEKWLNDAESSP
Second: SDLEELEKFAKTFKQRRIKLGFTQGDVGLAMGKLYGYDFSQTTISRFEALNLSFKNMCKLKPLLEKWLNDAESSP
The abundance fitness of the first is higher: -0.027 ± 0.024 for the first, -0.157 ± 0.047 for the second.

First: SDLEELEKFAKTFKQRRIKLGFTQGDVGLAMGKLYGFDFSQTTISRFEALNLSFKNMCKLKPLLEKWLNDAESSP
Second: SDLEELEKFAKTFKQRRIKLGFTQGDVGLAMGKLYGEDFSQTTISRFEALNLSFKNMCKLKPLLEKWLNDAESSP
The abundance fitness of the first is lower: -0.139 ± 0.05 for the first, 0.003 ± 0.027 for the second.

SDLEELEKFAKTFKQRRIKLGFTQGDVGLAMGKLYGCDFSQTTISRFEALNLSFKNMCKLKPLLEKWLNDAESSP and SDLEELEKFAKTFKQRRIKLGFTQGDVGLAMGKLYGHDFSQTTISRFEALNLSFKNMCKLKPLLEKWLNDAESSP are within error of each other in abundance fitness: -0.027 ± 0.042 for the first, 0.04 ± 0.044 for the second.

SDLEELEKFAKTFKQRRIKLGFTQGDVGLAMGKLYGMDFSQTTISRFEALNLSFKNMCKLKPLLEKWLNDAESSP and SDLEELEKFAKTFKQRRIKLGFTQGDVGLAMGKLYGRDFSQTTISRFEALNLSFKNMCKLKPLLEKWLNDAESSP are within error of each other in abundance fitness: -0.025 ± 0.031 for the first, 0.027 ± 0.023 for the second.
